Data taken from US20240327517A1 (SUZHOU SMARTNUCLIDE BIOPHARMACEUTICAL, published 2024).
Substitutions are numbered along the chain they refer to. Names and notes keep the numbering of the source.

B1: C37H (humanized variant of C37-F1) (VHH)
VHH: QVQLVESGGGLVQPGGSLRLSCAASGLTFSDYAIGWFRQAPGKEREGISCIRIYDGNTYYADSVKGRFTISRDNSKNHVYLQMNSLRAEDTAVYYCAAGSYYSCSVYPAYDLDYWGKGTLVTVSS
B2: C37-H1 (humanized variant of C37-F1) (VHH)
VHH: B1 VHH with N57R, K117Q
B3: C37-H2 (humanized variant of C37-F1) (VHH)
VHH: B1 VHH with G56R, K117Q
B4: C37-H4 (humanized variant of C37-F1) (VHH)
VHH: B1 VHH with R87K, A88P
B5: C37-H3 (humanized variant of C37-F1) (VHH)
VHH: B1 VHH with S75A
B6: C37 single-domain antibody (untagged) (VHH)
VHH: QLQLVESGGGLVQAGGSLRLSCAASGLTFEDYAIGWFRQAPGKEREGISCIRIYDGNTYSAESVKGRFTISSDNAKNQVYLQINTLKPEDTAVYYCAAGSYYSCSVYPDYDMDYWGKGTLVTVSS
notes: The untagged construct was expressed in HEK293 and used in the Protein A test; also called C37 antibody
B7: C37-ST-YS (VHH)
VHH: B6 VHH with S60Y, T85S
notes: Mutant of section 1.1 (Protein A test); No tag is mentioned for this section
B8: C37-YDMS (VHH)
VHH: B6 VHH with S60Y, E62D, I83M, T85S
notes: as for B7
B9: C37-YMS (VHH)
VHH: B6 VHH with S60Y, I83M, T85S
notes: as for B7
B10: C37-S60Y (VHH)
VHH: B6 VHH with S60Y
notes: as for B7
B11: C37-YDS (VHH)
VHH: B6 VHH with S60Y, E62D, T85S
notes: as for B7
B12: C37-S72R (histidine-tagged) (VHH)
VHH: B6 VHH with S72R
notes: not shown: histidine tag
B13: C37-D111A (histidine-tagged) (VHH)
VHH: B6 VHH with D111A
notes: not shown: histidine tag
B14: C37-RSA (histidine-tagged) (VHH)
VHH: B6 VHH with S72R, T85S, D109A
notes: not shown: histidine tag
B15: C37-D109A (histidine-tagged) (VHH)
VHH: B6 VHH with D109A
notes: not shown: histidine tag
B16: C37-SA (histidine-tagged) (VHH)
VHH: B6 VHH with T85S, D109A
notes: not shown: histidine tag
B17: C37-SRS (histidine-tagged) (VHH)
VHH: B6 VHH with E30S, S72R, T85S
notes: not shown: histidine tag
B18: C37-SR (histidine-tagged) (VHH)
VHH: B6 VHH with E30S, S72R
notes: not shown: histidine tag
B19: C37-T85S (histidine-tagged, section 1.2) (VHH)
VHH: B6 VHH with T85S
notes: not shown: histidine tag
B20: C37-E30S (histidine-tagged) (VHH)
VHH: B6 VHH with E30S
notes: not shown: histidine tag
B21: C37-M112L (histidine-tagged) (VHH)
VHH: B6 VHH with M112L
notes: not shown: histidine tag
B22: C37-RA (histidine-tagged) (VHH)
VHH: B6 VHH with S72R, D109A
notes: not shown: histidine tag
B23: C37-SRA (histidine-tagged) (VHH)
VHH: B6 VHH with E30S, S72R, D109A
notes: not shown: histidine tag
B24: C37-KL-QQ (histidine-tagged) (VHH)
VHH: B6 VHH with K117Q, L120Q
notes: not shown: histidine tag
B25: C37-TMS (histidine-tagged) (VHH)
VHH: B6 VHH with Q78T, I83M, T85S
notes: not shown: histidine tag
B26: C37-D31Y (histidine-tagged) (VHH)
VHH: B6 VHH with D31Y
notes: not shown: histidine tag

biological target: T1, CD8α Fc fusion protein (UniProt P01732 22-182, limits assumed); assay: affinity detection of humanized variants (method not restated; taken as the CD8α Fc ELISA of section 1.2); relative to C37-F1
T1 construct: Used as the coating antigen of the ELISAs; also called CD8α antigen; CD8α protein; not shown: Fc part
T1 sequence (P01732 22-182 limits assumed): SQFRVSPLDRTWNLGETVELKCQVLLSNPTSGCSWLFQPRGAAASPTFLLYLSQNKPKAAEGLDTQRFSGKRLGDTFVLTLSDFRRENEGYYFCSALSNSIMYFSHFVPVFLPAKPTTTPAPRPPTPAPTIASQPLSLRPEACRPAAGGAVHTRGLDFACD
Description: (§1) After washing, an anti-His horseradish peroxidase-labeled antibody was added to allow reaction for 1 hour at room temperature. After washing, a chromogenic solution was added, and an absorption value was read at a wavelength of 450 nm. The software SotfMaxPro v5.4 was used for data processing and diagraph analysis; four-parameter fitting was performed to obtain the binding curve of the mutated antibody to CD8α; and different mutants were compared in relative activity with the C37 antibody as a control, in order to reflect the affinity of the antibody to CD8α.

Binder	Relative activity (%)
B1	151%
B2	110%
B3	122%
B4	141%
B5	171%

biological target: T2, PROTEIN A (packing of the PROTEIN A affinity chromatography) (UniProt P38507 37-327, limits assumed); assay: Protein A affinity chromatography of HEK293-expressed protein, SDS-PAGE of fractions
Text: After preliminary screening and identification, C37-cHis was selected as a final antibody sequence (including a histidine tag) from candidate antibodies, and meanwhile, an untagged recombinant plasmid C37 was constructed. HEK293 cells were transfected with the single-domain antibody C37 fusion protein plasmid constructed by the above recombination for expression of an antibody. […] Therefore, it was necessary to optimize the sequence of the C37 antibody to allow purification of the C37 antibody by affinity chromatography.
The recombinant plasmid C37 and the mutated recombinant plasmid C37-YDHMS were subjected to antibody expression via the HEK293 cells, respectively, and purification was conducted by means of the packing of the PROTEIN A affinity chromatography, in order to verify the binding to the affinity packing after the mutations.

Binder	binding result
B6	no binding

biological target: T2, PROTEIN A (packing of the PROTEIN A …); assay: binding to the Protein A affinity packing

Binder	binding result
B7	no binding
B8	no binding
B9	no binding
B10	no binding
B11	no binding

biological target: T1, CD8α Fc fusion protein; assay: ELISA, plate coated with CD8α Fc fusion protein, anti-His-HRP detection, 4-parameter fit; relative to C37
Text: The expression level and binding activity of each mutant were separately detected. For the sake of detection, a histidine-tagged recombinant plasmid was used in this section for transient transfection, after which a recombinant protein was purified by affinity chromatography with a corresponding Ni+ resin gel, thereby obtaining a protein of interest for direct use in the detection of expression level and binding activity.
as §1

Binder	Relative activity (%)
B12	115%
B13	84.6%
B14	103%
B15	476%
B16	257%
B17	33%
B18	42%
B19	162%
B20	126%
B21	206%
B22	108%
B23	40%
B24	141%
B25	107%
B26	48.4%
